From paper PMC3564530 (Molecular Biology of the Cell, 2013)

Molecular target: recombinant his6-tagged linear penta-Ub (Ub5) (UniProt P0CG48)
Test: pull-down

recombinant his6-tagged linear penta-Ub (Ub5), sequence (P0CG48 1-380): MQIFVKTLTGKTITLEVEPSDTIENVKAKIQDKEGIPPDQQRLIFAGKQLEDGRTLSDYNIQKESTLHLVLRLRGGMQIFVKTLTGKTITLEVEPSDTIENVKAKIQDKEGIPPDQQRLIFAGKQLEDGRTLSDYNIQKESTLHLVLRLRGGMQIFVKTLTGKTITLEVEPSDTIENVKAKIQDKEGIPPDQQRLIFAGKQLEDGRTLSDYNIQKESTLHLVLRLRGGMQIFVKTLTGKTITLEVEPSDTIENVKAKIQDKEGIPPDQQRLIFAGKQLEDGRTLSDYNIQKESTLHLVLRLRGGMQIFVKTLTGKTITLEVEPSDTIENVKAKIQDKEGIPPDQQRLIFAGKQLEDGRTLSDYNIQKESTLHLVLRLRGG

B1: recombinant purified GST-CIN exon 2 (domain or fragment)
chain: TGSLAAAVETASGRQALVVGKPSPYMFECITENFSIDPARTLMVGDRLETDILFGHRCGMTTVLTLTGVSRLEEAQAYLAAGQHDLVPHYYVESIADLTEGLED
  binding result: binds
